A short description of data set [1]: Plasma stability in human plasma (LCMS, percent remaining). Particulars: 37° C., 2 hours incubation, read-out: T1/2 plasma stability. It counts as in vitro ADME. The protocol: (§1) With reference to FIGS. 6A and 6B, plasma stability […] of CCP1-GN4 was measured at WuXi Biologics. The compound was incubated in human, rat, or mouse plasma at 37° C. for 2 hours. Aliquots were taken at various time points and the percent remaining of CCP1-GN4 was quantified by LCMS. For plasma protein binding (PPB), the compound (CCP1-GN4) was incubated with human, rat, or mouse plasma protein and the degree of plasma protein binding was determined by ultracentrifugation and LCMS.

Data set [2] in a line: Plasma stability in mouse plasma (LCMS, percent remaining). It counts as in vitro ADME. To be noted: 37° C., 2 hours incubation, read-out: T1/2 plasma stability. The method, then:
as §1

Data set [3] concerns the target mouse anti-citrullinated epitope recombinant antibody clone 12G1 (anti-CCP1). Briefly: SPR binding of CCP1-GN4 to immobilized anti-CCP1 antibody (Biacore S200, steady state affinity). To be noted: antibody clone 12G1 immobilized on CM5 chip, 25° C., steady state affinity model, read-out: KD (anti-CCP). The protocol:
With reference to FIG. 5A, binding of CCP1-GN4 was assessed using a surface plasmon resonance (SPR) on a Biacore S200 instrument. Prior to binding studies, 20 μg/mL mouse anti-citrullinated epitope recombinant antibody clone 12G1 (anti-CCP1) (Creative BioLabs) was immobilized to a Series S Sensor Chip CM5 using amine coupling to a target of 1.000 response units (RU) in 10 mM sodium acetate buffer pH 5.5. In parallel, normal human IgG isotype control (R&D Systems) was immobilized as a reference subtraction control using identical conditions. Sensor chips and reagents necessary for amine coupling were purchased from Cytiva.
CCP1-GN4 was serially diluted in 100% DMSO and transferred to a 96-well microplate. 1×HBS-P buffer (Cytiva) was added to dilute sample to final test concentrations (1000 nM, 250 nM, 62.5 nM, 15.6 nM, 3.9 nM, 1 nM) in 1% DMSO. A solution of 1×HBS-P (Cytiva) containing 1% DMSO was prepared as running buffer immediately prior to binding experiments.
Samples were injected over the sensor chip with a contact time of 300 seconds, dissociation time of 600 seconds, and a flow rate of 30 μL/minute at 25° C. Between injections, a solution containing 50% DMSO in 1×HBS-P buffer was used to wash any remaining bound analyte from the sensor chip surface. […]

Data set [4] deals with T1, recombinant biotin-ASGPR1 (Homo sapiens, UniProt P07306).
T1 construct: purchased Viva Biotech
T1 sequence (P07306 1-291): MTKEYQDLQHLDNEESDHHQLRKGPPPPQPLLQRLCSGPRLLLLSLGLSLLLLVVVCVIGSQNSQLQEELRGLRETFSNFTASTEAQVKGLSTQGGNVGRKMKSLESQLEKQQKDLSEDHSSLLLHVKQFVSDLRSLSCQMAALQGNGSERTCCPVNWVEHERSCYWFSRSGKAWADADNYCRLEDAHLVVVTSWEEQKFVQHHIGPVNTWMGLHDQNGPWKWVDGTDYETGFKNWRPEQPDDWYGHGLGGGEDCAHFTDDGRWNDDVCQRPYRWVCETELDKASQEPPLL
The experiment in a line: SPR binding to ASGPR1 (Biacore 8K). The protocol:
With reference to FIG. 5B, binding to ASGPR1 was characterized by surface plasmon resonance (SPR) on a Biacore 8K instrument. Preceding binding measurement, recombinant biotin-ASGPR1 (Viva Biotech) was diluted to a concentration of 2 μg/mL in a buffer containing 20 mM Tris pH 8.0, 200 mM NaCl, 1 mM TCEP, 2 mM CaCl2), and 0.01% Tween-20. A Sensor Chip SA (Cytiva) was conditioned with three injections of 1 M NaCl in 50 mM NaOH prior to capturing […] ASGPR on the sensor chip surface. Capture was performed at a flow rate of 5 μL/min with a target level of 1000 RU. CCP1-GN4 was serially diluted across 10 points to final test concentrations (25 nM, 8.3 nM, 2.8 nM, 0.93 nM, 0.3 nM, 0.1 nM, 0.03 nM, 0.01 nM, 0.004 nM, 0.0013 nM) in buffer composed of 20 mM Tris pH 8.0, 200 mM NaCl, 1 mM TCEP, 2 mM CaCl2), 0.01% Tween-20, and a final solvent composition of 3% DMSO.
Samples were injected over the sensor chip surface with a contact time of 180 seconds, dissociation time of 600 seconds, flow rate of 40 μL/min and temperature of 25° C. Data files were fit to multi-cycle kinetics and steady state models using Biacore Insight Evaluation software to determine kinetic and affinity binding parameters.

The nature of data set [5]: Plasma stability in rat plasma (LCMS, percent remaining). It counts as in vitro ADME. Particulars: 37° C., 2 hours incubation, read-out: T1/2 plasma stability. The method, then: as §1
For data set [6], the target named is mouse anti-citrullinated epitope recombinant antibody clone 12G1 (anti-CCP1) (Creative BioLabs). The experiment in a line: SPR (Biacore S200), antibody 12G1 amine-coupled on CM5, CCP1-GN4 as analyte, steady state affinity model. Background: Surface plasmon resonance follows binding to a sensor surface in real time, without labels.
In data set [7] the target is recombinant biotin-ASGPR1 (Viva Biotech). Briefly: SPR (Biacore 8K), biotin-ASGPR1 captured on SA chip, CCP1-GN4 as analyte, multi-cycle kinetics and steady state models.
The target is the same in data set [8]. Briefly: SPR (Biacore 8K), biotin-ASGPR1 captured on Sensor Chip SA, CCP1-GN4 as analyte, multi-cycle kinetics, 1:1 binding model, 25 C.
For data set [9], the target named is mouse anti-citrullinated epitope recombinant antibody clone 12G1 (anti-CCP1) (Creative BioLabs).

We go through two molecules from patent publication US20260224727A1, “COMPOUNDS AND METHODS FOR TREATING, AMELIORATING, OR […]” (Yale University, priority 2023, published 2026).

Bridge positions count the residues as written; N and C are the ends. Square brackets hold non-standard residues; d marks the D form. Ends that are not written are not given here. Cit = NC(=O)NCCC[C@H](N)C(=O)O Where only a bound is given, the exact number is not on record here.

A word on the Kd: it is the concentration at which binding is half-saturated. `CC(=O)N[C@H]1[C@H](OCCOCCOCCNC(=O)CCOCC(COCCC(=O)NCCOCCOCCO[C@@H]2O[C@H](CO)[C@H](O)[C@H](O)[C@H]2NC(C)=O)(COCCC(=O)NCCOCCOCCO[C@@H]2O[C@H](CO)[C@H](O)[C@H](O)[C@H]2NC(C)=O)NC(=O)CNC(=O)CCOCCOCCOCCOCc2cn(CC[C@H](N)C(=O)N[C@@H](Cc3c[nH]cn3)C(=O)N[C@@H](CCC(N)=O)C(=O)N[C@H]3CSSC[C@@H](C(=O)NCC(=O)N[C@@H](CCCNC(=N)N)C(=O)N[C@@H](CO)C(=O)NCC(=O)N[C@@H](CO)C(=O)O)NC(=O)[C@H](CCCNC(=N)N)NC(=O)CNC(=O)[C@H](CCCNC(=N)N)NC(=O)[C@H](CO)NC(=O)[C@H](CCCNC(=N)N)NC(=O)CNC(=O)[C@H](CCCNC(N)=O)NC(=O)[C@H]([C@@H](C)O)NC(=O)[C@H](CO)NC(=O)[C@H](CCC(=O)O)NC(=O)[C@H](CCC(N)=O)NC(=O)[C@H](Cc4c[nH]cn4)NC3=O)nn2)O[C@H](CO)[C@H](O)[C@@H]1O` [CCP1-GN4]: the half-life in data set [1], in data set [2] and in data set [5] was more than 4.83 h in each case. Moreover, the Kd turned out to be 75 nM in [3] and 1.92 nM in data set [4].

B1: CCP1-GN4 (peptide)
peptide: HQCHQEST[Cit]GRSRGRCGRSGS-OH
modifications: disulfide 3-16; not fully specified (N-terminus); also: Dab(N3) side-chain azide joined by CuAAC triazole to Target A001A-PEG4-Alkyne (tri-GalNAc)
One may read the koff as a measure of how fast the partners let go of each other. By kon is commonly meant a measure of how fast the partners come together. In the case of B1, the Kd in data set [6] was 75 nM. Besides, the Kd in data set [7] came out at 1.92 nM. Also, in [8], the dissociation rate constant (koff) is 0.029 s⁻¹ and the on-rate (kon) is 1.51e+07 M⁻¹ s⁻¹. For the same molecule, the EC50 (read off the curve); Anti-CCP1 MFI of 12G1 with goat anti-mouse AF488 in HEK-293-ASGPR cells in data set [9] was 50 nM.
